# Numbering of substitutions follows the chain as printed.
# T1: recombinant His6-tagged extracellular domain of human Clec4C (C-type lectin domain family 4, member C) (human, UniProt Q8WTT0 44-213)
# T1 construct: Same antigen for immunisation, panning and ELISA; also called His-Clec4C(EC); pMET7-SIgK-His-Clec4C(EC)
# T1 sequence: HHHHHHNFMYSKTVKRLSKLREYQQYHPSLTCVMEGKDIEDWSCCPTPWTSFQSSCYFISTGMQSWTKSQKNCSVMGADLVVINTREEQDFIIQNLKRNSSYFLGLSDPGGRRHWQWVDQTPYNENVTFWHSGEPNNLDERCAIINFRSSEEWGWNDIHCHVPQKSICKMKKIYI
# B1: 1CL48 (VHH)
# VHH: QVQLQESGGGLVQPGGSLRLSCVGSGSTFRHHAMAWFRQTAGKEREFVSAINNHGTKTRYSDSVRGRFTISRDNDENMVYLQMDNLRPEDTAVYSCAAGPLVDYLETVPVVYTYWGQGTQVTVSS
# notes: pMECS VHH-HA-His6; TG1 periplasmic extract
# B2: 1CL21 (VHH)
# VHH: B1 VHH with Q13R, A41T, N53D
# notes: as for B1
# B3: 2CL4 (VHH)
# VHH: B1 VHH with L20I, V23A, N53D, P88S, V93N, S95T
# notes: as for B1
# B4: 2CL8 (VHH)
# VHH: B1 VHH with R19K, V23A, M34L, G42E, N53D, E76G
# notes: as for B1
# B5: 1CL82 (VHH)
# VHH: QVQLQESGGGSVQAGDSLRLSCVAPGREISSPAMGWFRQAPGKEREFVATINWSSGATLTADSVKGRFTIFKDVEKNTVYLQMNSLRPEDTAVYSCAAGATGVFRIARAYSYWGQGTQVTVSS
# notes: as for B1
# B6: 2CL84 (VHH)
# VHH: QVQLQESGGGSVQAGGSLRLSCAASGRTFSDYAMGWFRQAPGKEREFVATISKSGSSTDYADSAKGRFTISRDNAKKTVYLQINSLKTEDTAVYYCAARLSFDNTAFYTSAIRYSDWGQGTQVTVSS
# notes: as for B1
# B7: 2CL92 (VHH)
# VHH: B6 VHH with G16D, D31G, K53T, D59Y, A64V, T78S, T91A, D116Y
# notes: as for B1
# B8: 2CL21 (VHH)
# VHH: QVQLQESGGGLVQAGGSLRLSCAASGRTFTGYAMGWFRQVPGLEREFVARISRSGNSTGYADSVKGRFTVSRDNAKSTMYLQMNSLKTEDTAVYYCAATTSWLPGHNANVYDYWGQGTQVTVSS
# notes: as for B1
# B9: 2CL30 (VHH)
# VHH: B8 VHH with L11S, T30S, G31D, N56D, S77N, M79V
# notes: as for B1
# B10: 2CL71 (VHH)
# VHH: QVQLQESGGGLVQAGGSLRLSCAASGLTFGRYAMGWFRQVPGLEREFIARISRSGDNTGYADSVKGRFTVSRDSAKSTVYLQMNSLKTEDTAVYYCAAGTSWVPGHNANAYDYWGQGTQVTVSS
# notes: as for B1
# B11: 2CL59 (VHH)
# VHH: QVQLQESGGGLVQPGDSLTLSCADSGRTFSNYAMGWFHQAPGKEREFVAAISTSGGSTAYADSVKGRFTISRDNAKNTVYLQMNNLKPEDTAVYYCAARLSFSGSSYYQGPLQYPYWGQGTQVTVSS
# notes: as for B1
# B12: 2CL43 (VHH)
# VHH: QVQLQESGGGTVQPGESLRLSCEVSTDTFSSLAMAWFRQATGKDREFVAAISWSGASTVYGDSVKGRFTMTRDHPKKMVYLQMDNLKPEDTAVYYCAGDLDGRTWHGDDLEYDYWGQGTQVTVSS
# notes: as for B1
# B13: 2CL89 (VHH)
# VHH: B12 VHH with G42A, A56D
# notes: as for B1
# B14: 2CL82 (VHH)
# VHH: B12 VHH with T11L, E16G, D44E
# notes: as for B1
# B15: 2CL16 (VHH)
# VHH: QVQLQESGGGLVQPGGSLRLSCAASGDTFSNYAMGWFRQAPGKAREFVAAISRSAGSTYHVDSVKGRFTISRDNAMNTVYLQMNSLQPEDTAHYYCAARLTFNLIDYYTAETRYTYWGQGTQVTVSS
# notes: as for B1
# B16: 1CL2 (VHH)
# VHH: QVQLQESGGGLVQAGDSLRLSCAASGDTFSMYAMGWFRQAPGKEREFVAAISRSGGSTDYRDSVKGRFTISRDNDLNAGYLQMNSLKPEDTAVYYCALRLTFSTTTAYTGELQYPYWGQGTQVTVSS
# notes: as for B1
# B17: 2CL58 (VHH)
# VHH: B16 VHH with G56S, D59N, A107T
# notes: as for B1
# B18: 2CL73 (VHH)
# VHH: B16 VHH with D27N, D59N, S85N, T106D, E111K
# notes: as for B1
# B19: 1CL32 (VHH)
# VHH: B16 VHH with A33T, D59N
# notes: as for B1
# B20: 1CL54 (VHH)
# VHH: QVQLQESGGGLAQAGASLRLSCAGSGNNFEHYAVAWFRQDAPGKERDFVAAIRDYGDRTRYDDSVKGRFTISRDNAKSMVYLEMNNLKPKDAAVYYCAAGPLNDYLEVTPLVYTYWGQGTQVTVSS
# notes: as for B1
# B21: 2CL52 (VHH)
# VHH: B20 VHH with D40E, D62A, K90E, A92T, A98T
# notes: as for B1
# B22: 2CL26 (VHH)
# VHH: QVQLQESGGGWVQPGDSLRLSCAASGFTFSDYAVGWFRQAPGKEREFVARITRLGNGPYYSASVKGRFTISRDNARDMAYLKMDALTPEDTATYYCAAGRTLASTHDTKTSPQTYDYWGLGTQVTVSS
# notes: as for B1
# B23: 2CL55 (VHH)
# VHH: B22 VHH with F27S, L120Q
# notes: as for B1
# B24: 2CL72 (VHH)
# VHH: QVQLQESGGGLVQPGGSLKLSCAASGSTFRHHAMAWFRQTPGKEREFVSAINDHGDRTKYLDSVRGRFTISRDNTDNMVYLQMSDLRPEDTAVYSCAAGPLVDYLETTPLVYTYWGQGTQVTVSS
# notes: as for B1
# B25: 2CL88 (VHH)
# VHH: B24 VHH with A23T, A24G, S49A, V93N
# notes: as for B1
# B26: 2CL95 (VHH)
# VHH: B24 VHH with A24G, R30K, Q39H, L61S, S71A, S84D, R87L, V93N, S95T
# notes: as for B1
# B27: 1CL25 (VHH)
# VHH: B24 VHH with K19R, Q82L
# notes: as for B1
# B28: 2CL78 (VHH)
# VHH: B24 VHH with L11V, N74D, P88T, S95T
# notes: as for B1
# B29: 2CL90 (VHH)
# VHH: B24 VHH with P14A, K19R, E44G
# notes: as for B1
# B30: 2CL87 (VHH)
# VHH: B24 VHH with K19R, A24G, L61T
# notes: as for B1
# B31: 2CL41 (VHH)
# VHH: B24 VHH with P14A, K19R, P88T, S95T
# notes: as for B1
# B32: 2CL91 (VHH)
# VHH: QVQLQESGGGLVQAGDSLRLSCTASERTFSNYAMGWFRLAPGKERKFVAAISTSGGTTDYVDSVKGRFTISRDNAKNTVYLQMNSLKPEDTAVYYCAARLDFSSTDLYTTAPRYPYWGQGTQVTVSS
# notes: as for B1
# B33: 2CL7 (VHH)
# VHH: QVQLQESGGGLVQAGDSLRLSCAPSGFTFDGYAIGWFRQAPGKEREKVACINKSDGLTYYEDSVKGRFTISSDTAKNTIHLQMNSLKPDDTAVYYCAAAWECDYAPADFGSWGQGTQVTVSS
# notes: as for B1
# B34: 2CL18 (VHH)
# VHH: B33 VHH with D16G
# notes: as for B1
# B35: 1CL47 (VHH)
# VHH: QVQLQESGGGLVQAGGSRRLSCAASGRTFINYAMGWFRQAPGKEREFVAAISTSGSNTYLADSLKARFTISRDNAKNTVYLQIRSLNPEDTAVYYCAARLSFDDSAYYTSTLRYAYWGQGTQVTVSS
# notes: as for B1
# Molecular target: T1, recombinant His6-tagged extracellular …
# Experiment: ELISA, antigen-coated vs uncoated blocked wells
# Excerpt: (§1) In total, 190 colonies from rounds 1 and 2 were randomly selected and analyzed by ELISA for the presence of antigen-specific VHH in their periplasmic extracts (ELISA using crude periplasmic extracts from TG1 cultures including soluble VHH). The antigen used for ELISA screening was the same as the one used for immunization, using uncoated blocked wells as negative control.
row,ELISA ratio coated/uncoated,Binder
1,7.83,B1
2,11.1,B2
3,31.3,B3
4,15.7,B4
5,6.23,B5
6,18.2,B6
7,11.4,B7
8,4.23,B8
9,8.28,B9
10,5.33,B10
11,3.98,B11
12,12.1,B12
13,10.7,B13
14,9.74,B14
15,14.1,B15
16,4.36,B16
17,4.66,B17
18,4.93,B18

row,ELISA ratio coated/uncoated,Binder
1,9.9,B19
2,17,B20
3,7.07,B21
4,21.4,B22
5,15,B23
6,21.5,B24
7,12.2,B25
8,23.2,B26
9,5.81,B27
10,32.7,B28
11,7.54,B29
12,11.5,B30
13,20.9,B31
14,5.56,B32
15,6.57,B33
16,4.74,B34
17,9.79,B35

# Molecular target: T1, recombinant His6-tagged extracellular …
# Experiment: ELISA, TG1 periplasmic extract on coated antigen
# Excerpt: as §1
row,ELISA coated,Binder
1,3.85,B1
2,3.79,B2
3,2.8,B3
4,1.81,B4
5,3.01,B5
6,3.86,B6
7,3.89,B7
8,3.89,B8
9,3.79,B9
10,4,B10
11,3.76,B11
12,2.64,B12
13,1.31,B13
14,2.68,B14
15,2.03,B15
16,3.74,B16
17,2.24,B17
18,2.43,B18

row,ELISA coated,Binder
1,3.22,B19
2,1.88,B20
3,1.65,B21
4,4,B22
5,1.7,B23
6,3.63,B24
7,4,B25
8,4,B26
9,4,B27
10,3.75,B28
11,4,B29
12,1.62,B30
13,4,B31
14,4,B32
15,0.664,B33
16,0.491,B34
17,4,B35
